Experimental data as given in the DeepSol protein solubility set.

assay: soluble on expression in E. coli; label from the status in PepcDB or PDB records

Sequence | soluble on expression in E. coli
MSLEQPGFKLRAVTIHFEASADVDSIEDAVFKAKEAIDRLTAEKGVEVWSLRAVLTPGESVADSLGRVAELEPLVEEEGVFINLGLHNASADDWEAVSGIVESGFFLSFALENGTWEEARSYSKLLHRLADKSPDLAVHIGFNPLGTHILTPYFPLATSPGEQRTVTVALLYPRYLLESFRKGGLQAVIDSMVDAAQLSGEYGKAVAKDVEGSFAGVDLSISPWMEESSLALVEEVGGVRLPEPGFAYGLRLVNEAIAAAASKTGYAVGFNEVQLPVAEDSKLKVRVAELETSARDLLRLSGVCLAGLDMAVIPASLDGVAGLLLEARAYSRAKGSIVGVRLIPLDGVEPGDEVFLKRFGEVPVIPIEGHHHHHH | not soluble
MNPILTAAKQLLHKEEKILSTLKCSLTGYMITHKVPYPGMLLATNQRLLFFSQYKNTFIAEFDYEKILSIETKRRIFDKKIIFYYEDEYITLGYITSSNVEAFIDLLQRNSKTSTGL | not soluble
MSFSRRPKVTKSDIVDQIALNIKNNNLKLEKKYIRLVIDAFFEELKSNLCSNNVIEFRSFGTFEVRKRKGRLNARNPQTGEYVKVLDHHVAYFRPGKDLKERVWGIKG | soluble
MQLNSSSFHPHHFTCDTTRYSEEQVACICEALSNDARKLSQFVWTVLERDEMRNNQYILKAQAFLAFHSNNFKELYRIIESHHFASEHHLPLQEWWLNAHYHEAEKIRGRQLGAVGKYRIRRKYPLPRTIWDGEETSYCFRDKSRVLLRDWYCRNSYPSPREKRELAEKTHLTVTQVSNWFKNRRQRDRAGVPEPKDCLKDISEEEDLKLIRKTASKLSNSFHNPSDLSSYSAAAAAATFPGFYMNYNDMMIGAGTSYQSL | not soluble
MAHHHHHHMQFVSDLGLELSVFVCHLYAKYSEEPLKAFHELVLRTRSSCCGSDDSSNYLSLATLSGTQWYQDMTKRYASLRQRLRGERDNDVQEAREVTLSLYPQGCRVSEYADAIVTSAAMLTSNIPSTVLERFASCRVKDLNEKGCVSISADELASDLIERPVLDSFTPSRWWESDKTAPSSSLKDGLVAVKSIGLRVQPVEILIFYTYNGRPRRRFIPLDGLLHENSPIAPLLRRLVRSHGMLVSESQLRSYLQRLQELMRKSVESHASTVKPEGPLQPQFDWKQQIGYSDNAPAAHNTGEEEQHMTSAKTGEPEVNKADVGLLYRDPEAALKNVDLNDADDITLQEFKAKMNEGFMQNALRPGDPGYVYDKRLDVNPTERSEWDDSD | not soluble
MSLGTVHARSLDPLPMQGPELGVQADDMDLGEPEREEKQEVLENKDVVVQHVHIDGLGRTKEDILTYEIADVFHAKNLIDVMKKSHEARQKLLRLGIFRHVEVVIDTAEGADALPNGLDVTFEVRELRRMTGSYNTMVGNNEGSMVLGIKLPNVLGRAEKLTFQFSYGTKETSYGLSFFKPQPGHFERNFSLNLYKVTGQFPWSSLRETDRGVSAEISFPIWRTSHTLKWEGVWRELGCLARTASFAVREESGHSLKSSLAHAMVIDTRNSTILPRKGALLKINQELAGYTGGDVSFLKEDFEIQLNKTLFWDSVLSTSLWGGMLLPLGEKASSIADRFYLGGPTSVRGFSMYSIGPQSEGDYLGGEAYWAGGVHLYTPLPFRPGRGGFGDLFRTHFFLNAGNLCNLNYGEGPRAHLSKLAECIRWSYGAGIVLRLGNIARLELNYCIPMGVQSGDRICDGVQFGAGIRFLEGHHHHHH | not soluble
MGSDKIHHHHHHMISRTMQQQVNSSSIIRAMFEEGKRLSALYGADNVYDFSLGNPNVEPPAEVKQAIMDILNEENSTTVHGYMNNSGFEDVRGAIAASLNQRFATGFAADNILMTVGAAGGLNVIFKTLLNPEDEVLTFAPFFGEYRNYVQNYQGQLIVVSPNTKDFQPNLEELKEKISPRTKAVLINSPNNPTGVVYSAETIAALVDILRAKQEEYGTVIYLIGDEPYRELAYDQVEVPYLTKYYENTIVGYSYSKSLSLPGERIGYLVIPREAADYENLIAAANIANRILGFVNAPSLFQRVIAKCLDAQVNLDSYNRNRELLYNALVSYGYQCIKPEGAFYLFIKTPLENDLEFCTLAKSKNILIVPGTSFACPGYARIAYCVAYETIERALPGFEALINEVSWASA | not soluble
MGSDKIHHHHHHVDIQALKKVSELDVFSLLVFKLIYETGFANFAAKELAVSAPKISRCLTSLRAIFNDELFFRRQQGLKPTPLAERLYQPVCQLCDMVSQIERVADDRLNHHQTPILHIAVSPSIITSVAIALSKLPRDVIGKVKLHSWQADTEELIYNGELDFGIGFETQDTHGLEAYPIANVTSLCVVGNTNHLFWAGAEQIKLEDIIQHPIVYLRCKGFNNRIDPLELYCQTHGLLLEDIECARKLEDWYWHILTMDSLAITICNEGSFAQQIPQLRVERLPQSEFTKLNSVMAMPSYCLIERAEHYRRYSLNVKEMIIDIIKSLLV | not soluble
MSAQAAKVSKKELNSNHDGADETSEKEQQEAIEHIDEVQNEIDRLNEQASEEILKVEQKYNKLRQPFFQKRSELIAKIPNFWVTTFVNHPQVSALLGEEDEEAMHYLTRVEVTEFEDIKSGYRIDFYFDENPYFENKVLSKEFHMNESGDPSSKSTEIKWKSGKDMTKRSSQTQNKASRKRQHEEPESFFTWFTDHSDAGADELGEVIKDDIWPNPLQYYLVPDM | soluble
MVKVKIYYKDREWPPEYRKVLEKMKEIIDPVTGESILDSGVLAGLEVKGDTLKVWLKFESNAEYNILGSAAMAYSKIVGDIMEKFALVMFDKVYVYDLGNNPIGIFENKGNGRK | soluble
MAHHHHHHMKVDSLLSPRSAFSTENDPCGSVESVANDVASASDVVVAYPQPGKRWSRIIAGPELVGMSLKENQIKDGKALCIYGHCFDDGIIDYITNEVLPEARVLTKVEIAETKFSSAGMKILLRALWTNSPCEQMEELLLHDVHLHFEETLQLKEVIMKNRKCLRRLVLQRCHMDDSAAEPIVQAISHCEQLREVNFLDNNIVHALAIPTEREDIFPPTLQIFDISGNRIEPKHFTGLGNALRRCMANLHEVYLARCCVTESGLKTLLCGGLYNSQVLSVLNVSAGRLLHTAGKVLSSVISECPNLQRVYMQDNLLDVEGAAQIALVIPYAKKLTVLGMGRCHLGGRGARYIAEAVKQSASLRELDLSGNGVTDEDVHRICACNDDASFRLSYLDLSDNPLTEDCRCSLETLLEHQKDNSCIVVVRGTGLAVVSSYMEYHNKPTPG | not soluble
MDTNWLYVLLQKSTADPLERLKLGNVILNEVSQRKVSPHPKLVNDFLDVMSGWLTGSNFKVSTIGLEILDAALRTSPDVLASYYFDRCSVLIERMGDAKVQVREMAINLCLQLAYLENSSPVMLLDRLCVPGTGFQHKQWLVKVGSLNILREFLSSSFALVIQQAITLIPQLCRLTNDPNSEVRDVSTQCLIDLMVYGGKPIVAKIAATRLINEQKMATLLQRYQTTVATRGDLPPKHTITMETTPAQPSRNSLLRRSLRSPAKIIHPSASTTSFTSSARLSTPPRPTTTAAQSLSLAPQTPSPLSLPSPSGGQMSRSRDLTRSSLRAPAGISISRYRSSSCAPAAQCAITLDDFKKSFTAVPKTTIYSNHDIREKLELANLVLRNANEDWSKRANQLKLIRSIIINCDENIDRSLLISIINELADALEFSIRDLRSQIVREAAVTCSFLFETFGMEVKNVAECVLPAALAQVAVSTKVIASSAATLTVFIVQKIQTRQIFTTLSELSSSKAKEQRRQLAVVLETLIASWDLKSKQPILKQIAQLVQNAICDADGETRVAGRKAFAKLEQLHGTTADLIFRELDPAKQKMLRDGVSSSSSSLNSDRDNNNQKQQPNQQNISQKFLSQRSASAVDKSIQLSVKPQTTAIPSRPTAMPMNNRLPKSSTSTSFSAVRSSGYGQNQSTTPNRAKTPSDGFAGSSPHYTNGNNNNKSSSSSPSTSTHQTPIQRVASNLGSSSFVASLTQEQANCLQNAMNTAKDEMSKNNEDDEFLLDEIRKTPPKEVPRSYNNSPFKPSNLDSSVHRSYNNNSPFRPSSGSVGSGSNGSVQSIEHILKACTSSSLNEKRDAIVNLNQVITDPNLCQLECKNIGDTLSRLLAEGNNTLIISILDTISIFIKFQYKKLDNWLKLALGKLFAKMGADALPNVKSALSSTQKMFLTTFDPTFQLKAVCDFMCDPVHLLSPKSRLALLEYICLLFEEIWPEDPRCLERQTHLDTPYTRAAIRKMFAWMFDPRIGAILMPACERLVCALFALNAADFTMIFGELPSECRDWAYRILQLNGQQNNQKPIEKEKERFISNNNYKPCPLDNEEIEKPIMKTTYSTYESTRKEYSQTERIATENQYSTPPPPDYRTSTAHLAKNHVDQAAYIRNQLDAIRDFEKADKLNEAMANLHGMMCEGSFTLWNQFFDELLDSIYQILSTFSQSIRKKLALRILQKMCTAQATKLFDSTEIAISKVLQCACTSDDNTMGVAAEDCLRILASHLPLTRVVLISRRILSQDDDDQRGVLILKMLTRMFQDIDIEELHLIVNDVAPCFVTAYESMSSTVRKCAVFGLVALVQRVGMQRMEPHLRTLNASKLNLIDLYVGRAKSSESGASSN | not soluble
MGSDKIHHHHHHMIKIETVLDILKKDGLFREIIDQGHYHYNYSKVIFDSISYDSRKVTEDTLFFAKGAAFKKEYLLSAITQGLAWYVAEKDYEVGIPVIIVNDIKKAMSLIAMEFYGNPQEKLKLLAFTGTKGKTTAAYFAYNILSQGHRPAMLSTMNTTLDGETFFKSALTTPESIDLFDMMNQAVQNDRTHLIMEVSSQAYLVKRVYGLTFDVGVFLNISPDHIGPIEHPSFEDYFYHKRLLMEKSRAVIINSDMDHFSVLKEQVEDQDHDFYGSQFDNQIENSKAFSFSATGKLAGDYDIQLIGNFNQENAVAAGLACLRLGASLEDIKKGIAATRVPGRMEVLTQKNGAKVFIDYAHNGDSLKKLINVVETHQTGKIALVLGSTGNKGESRRKDFGLLLNQHPEIQVFLTADDPNYEDPMAIADEISSYINHPVEKIADRQEAIKAAMAITNHELDAVIIAGKGADCYQIIQGKKESYPGDTAVAENYL | not soluble
MGSDKIHHHHHHMEKLNFGIPEWAFEFHGHKCPYMPMGYRAGSYALKIAGLEKEKDHRTYLLSEMSPEDMNGCFNDGAQAATGCTYGKGLFSLLGYGKLALILYRPGRKAIRVHVRNSFMDELSTRASDFFRYRKQGYEPSEIPAGAIDPVLEWISSLEDEEIFEYREIDGFTFEPVKKNGAKVRCDVCGEYTYEADAKLLNGKPVCKPDYYGKK | not soluble
DAMNVMPVLAEIRERKAAHRAGMPSHVINFTLLPMNAVDMAHLQATLGNGPIQLHSRGYGSCRVLATATRDVWSVQFLNAMDTMILDTLEIGDVPAAACAADEDFSDSAERLGEIIEAYFE | not soluble
MGHHHHHHSHMKQTAESIRDRFMKLGIDVPVEDIESRLDELIKKFKVPSNEAQRSVTNYFLKKYSIPKNEFYVRQAEPQLTKIVDIVENGQWANLKAKVIQLWENTHESISQVGLLGDETGIIKFTIWKNAELPLLEQGESYLLRSVVVGEYNDRFQVQVNKNSSIEKLSEPIEVGGGDFTPAAREAELRNIADLTGNQWATVRGKVIQLWENSHESIEQAGLIGDETGVIKFTNWASSELPDMEEGRSYLLKNVVVNEWNGKAQVQLNRSSSIEELDEDIEVRTSMSSYFGAMVDIQTGSGLIKRCPECKRALVKGACAEHGKVKGEYDLRIKAVLDSGTSTQDALINRELTEELSGISLDSAIAMAADALDPGVVLDKLKHELVGRYYTITGHKLDRYILVESITPRTSLDRELLDQMLAEPIAQPEVE | soluble
